# How the values were obtained:
# Assay in all cases: ITC; VP-ITC or ITC200; 25°C; ITC buffer (50 mM Tris/HCl, pH 7.5, 150 mM NaCl, 2 mM DTT, 5% glycerol); SUMOs titrated into a solution of the RNF4 construct or peptide (legends of Figures 1B, 2B); 20–30 injections up to 2–3-fold molar excess; values averaged from two to six titrations
# [1] = molecular target: RNF4-SIM2/3 peptide (human)
# [2] = molecular target: synthetic tandem PIAS1 SIM peptide
# [3] = molecular target: RNF4 1–125 (RNF4-SIM domain, wt) (human) (UniProt P78317)
# Chain of RNF4 1–125 (RNF4-SIM domain, wt) (human) (P78317 1-125): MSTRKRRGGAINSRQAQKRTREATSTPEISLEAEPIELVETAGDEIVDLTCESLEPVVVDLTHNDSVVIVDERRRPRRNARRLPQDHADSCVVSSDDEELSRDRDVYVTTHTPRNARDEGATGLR
# Chain of RNF4-SIM2/3 peptide (human) (P78317 43-65): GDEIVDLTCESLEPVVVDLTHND
Substance,Kd [1] [µM],Kd [2] [µM],Kd [3] [µM]
linear di-SUMO2 (2×SUMO2-ΔN11) (from UniProt P61956 12-95; P61956 12-95),8.5,3.8,14
linear tetra-SUMO1 (4×SUMO1-ΔN15) (from UniProt P63165 16-101; P63165 16-101; P63165 16-101; P63165 16-101),–,–,4.3
linear di-SUMO1 (2×SUMO1-ΔN15) (from UniProt P63165 16-101; P63165 16-101),–,–,17
linear tetra-SUMO2 (4×SUMO2-ΔN11) (from UniProt P61956 12-95; P61956 12-95; P61956 12-95; P61956 12-95),–,–,1.6
